In patent US20160257744A1 (Genentech, published 2016):
Substitutions are numbered along the chain they refer to.

Key:
[1] = molecular target: T1, interleukin 4 (IL4) (UniProt P05112 25-153); assay: phage competition ELISA: Fab-phage incubated 2 h with serial dilutions of the antigen in solution, unbound phage captured on antigen-coated wells, anti-M13-HRP; IC50 = antigen concentration inhibiting 50% of phage binding
T1 sequence (looked up): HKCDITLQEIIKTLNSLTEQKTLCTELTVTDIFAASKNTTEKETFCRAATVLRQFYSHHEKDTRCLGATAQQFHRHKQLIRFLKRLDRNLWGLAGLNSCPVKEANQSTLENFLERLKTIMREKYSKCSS
Method: (§1) Fab displaying phage was first incubated with serial dilutions of the respective antigens in solution for 2 h, unbound phage was then briefly captured by antigen coated ELISA wells and detected with anti-M13 HRP conjugate. The concentration of antigen inhibiting 50% of phage binding to antigen coated well is calculated as IC₅₀. NB denotes no detectable binding of phage clone directly to the antigens coated wells.

[2] = molecular target: T2, interleukin 5 (IL5) (human, UniProt P05113 20-134); assay: as above
T2 construct: also called human IL5 (R&D Systems)
T2 sequence (looked up): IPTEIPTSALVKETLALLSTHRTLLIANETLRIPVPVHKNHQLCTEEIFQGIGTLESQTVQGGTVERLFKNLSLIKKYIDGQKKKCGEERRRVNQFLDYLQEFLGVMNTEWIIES
Method: as §1

[3] = molecular target: T3, interleukin 13 (IL13) (UniProt P35225 35-146, limits assumed); assay: phage ELISA: direct binding of the phage clone to antigen-coated wells (NB = no detectable binding)
[4] = molecular target: T3, interleukin 13 (IL13); assay: phage competition ELISA: Fab-phage incubated 2 h with serial dilutions of the antigen in solution, unbound phage captured on antigen-coated wells, anti-M13-HRP; IC50 = antigen concentration inhibiting 50% of phage binding
Method: as §1

[5] = molecular target: T2, interleukin 5 (IL5); assay: phage ELISA: direct binding of the phage clone to antigen-coated wells (NB = no detectable binding)
[6] = molecular target: T2, interleukin 5 (IL5); assay: phage competition ELISA (phage IC50), soluble IL5 against IL5-coated wells
Method: as §1
(§2) The relative affinity of each clone was assessed by phage IC₅₀ as above.

[7] = molecular target: T2, interleukin 5 (IL5); assay: SPR, Fab over immobilized IL5
[8] = molecular target: T2, interleukin 5 (IL5); assay: SPR (Biacore), Fab over CM5 chip with immobilized human IL5, 25 °C
[9] = molecular target: T1, interleukin 4 (IL4); assay: SPR (Biacore), Fab over CM5 chip with immobilized IL4, 25 °C
[10] = molecular target: T1, interleukin 4 (IL4); assay: phage competition ELISA (phage IC50), soluble IL4 against IL4-coated wells
Method: as §1, §2

[11] = molecular target: T1, interleukin 4 (IL4); assay: phage ELISA, Fab-displaying phage on IL4
Source text: Anti-gD antibody was directly coated on ELISA wells, whereas IL4 was captured with a non-blocking anti-IL4 antibody coated on ELISA wells.

[12] = molecular target: T4, HER2 ECD; assay: ELISA: human IgG1 at 250 nM on protein-coated wells, anti-Fc-HRP
T4 construct: one of the irrelevant proteins; also called irrelevant protein coated on ELISA wells

[13] = molecular target: T3, interleukin 13 (IL13); assay: as above
[14] = molecular target: T5, BSA (bovine, UniProt P02769); assay: as above
T5 construct: negative control protein; also called irrelevant protein coated on ELISA wells

[15] = molecular target: T1, interleukin 4 (IL4); assay: as above
[16] = molecular target: T1, interleukin 4 (IL4); assay: phage ELISA: direct binding of the phage clone to antigen-coated wells (NB = no detectable binding)
[17] = molecular target: T2, interleukin 5 (IL5); assay: ELISA: human IgG1 at 250 nM on protein-coated wells, anti-Fc-HRP
[18] = molecular target: T4, HER2 ECD; assay: ELISA: IgG at 100 nM on immobilized protein, anti-IgG-HRP [panel A]
[19] = molecular target: T5, BSA; assay: as above
[20] = molecular target: T2, interleukin 5 (IL5); assay: SPR (Biacore), Fab over immobilized human IL5, 25 °C

T5 sequence (P02769 25-607 limits assumed): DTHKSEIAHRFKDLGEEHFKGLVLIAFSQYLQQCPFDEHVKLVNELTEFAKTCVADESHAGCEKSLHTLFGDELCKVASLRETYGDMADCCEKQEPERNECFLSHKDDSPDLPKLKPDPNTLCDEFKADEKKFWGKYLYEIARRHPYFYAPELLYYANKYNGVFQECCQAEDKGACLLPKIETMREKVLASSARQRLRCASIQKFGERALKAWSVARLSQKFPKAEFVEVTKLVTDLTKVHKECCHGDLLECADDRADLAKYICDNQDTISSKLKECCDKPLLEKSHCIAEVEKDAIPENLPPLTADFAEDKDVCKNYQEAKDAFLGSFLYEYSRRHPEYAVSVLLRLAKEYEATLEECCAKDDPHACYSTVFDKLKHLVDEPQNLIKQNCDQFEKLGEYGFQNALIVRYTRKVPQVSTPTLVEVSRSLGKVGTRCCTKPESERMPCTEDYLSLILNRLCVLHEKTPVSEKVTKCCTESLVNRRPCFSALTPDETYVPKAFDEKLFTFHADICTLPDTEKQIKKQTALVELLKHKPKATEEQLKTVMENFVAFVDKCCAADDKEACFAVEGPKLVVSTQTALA
T3 sequence (P35225 35-146 limits assumed): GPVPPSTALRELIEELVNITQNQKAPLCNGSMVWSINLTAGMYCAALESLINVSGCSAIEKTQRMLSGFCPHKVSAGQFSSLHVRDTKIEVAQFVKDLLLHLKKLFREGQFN

B1: B1, anti-IL4/IL5 dual specific variant of hu19C11, Fab displayed on phage (Fab, V domains shown)
VH: EVQLVQSGAEVKKPGASVKVSCKASGYTFTDYLMHWVRQAPGQGLEWIAVIVSITGRTYYADDFKGRVTITRDTSTSTAYLELSSLRSEDTAVYYCARGGIFYGMDYWGQGTLVTVSS
VL: DIQMTQSPSSLSASVGDRVTITCKASQSVINDAAWYQQKPGKAPKLLIYYTSHRYTGVPSRFSGSGSGTDFTLTISSLQEDFATYYCQQDYTPFPLTFGQGTKVEIKR
notes: also called clone B1
IC50 [1]: ~1000 nM
IC50 [2]: ~1000 nM
binding result [3]: no binding

B2: F2, anti-IL4/IL13 dual specific variant of hu19C11, Fab displayed on phage (Fab, V domains shown)
VH: EVQLVQSGAEVKKPGASVKVSCKASGYTFTDYSMHWVRQAPGQGLEWIGIIFYTGHTYYADDFKGRVTITRDTSTSTAYLELSSLRSEDTAVYYCARGGIFYGMDYWGQGTLVTVSS
VL: DIQMTQSPSSLSASVGDRVTITCKASQSVINDAAWYQQKPGKAPKLLIYYTSHRYTGVPSRFSGSGSGTDFTLTISSLQEDFATYYCQQDYTSPWTFGQGTKVEIKR
IC50 [4]: ~1000 nM
IC50 [1]: 14.8 nM
binding result [5]: no binding

B3: F1, anti-IL4/IL13 dual specific variant of hu19C11, Fab displayed on phage (Fab, V domains shown)
VH: B2 VH with I50V, Y53Q, T54S, H56A
VL: B2 VL
IC50 [4]: ~1000 nM
IC50 [1]: 22.3 nM
binding result [5]: no binding

B4: E7, anti-IL4/IL5 dual specific variant of hu19C11, Fab displayed on phage (Fab, V domains shown)
VH: EVQLVQSGAEVKKPGASVKVSCKASGYTFTDYFIHWVRQAPGQGLEWIAGIVYDATGFTTYADDFKGRVTITRDTSTSTAYLELSSLRSEDTAVYYCARGGIFYGMDYWGQGTLVTVSS
VL: B2 VL
notes: also called clone E7
IC50 [6]: ~1000 nM
IC50 [2]: ~1000 nM
binding result [3]: no binding

B5: 1C60, affinity-matured variant of E7, purified as Fab (Fab, V domains shown)
VH: B4 VH with T60V
VL: B2 VL with T92K, S93H
notes: Purified Fab for SPR
Kd [7]: 44.4 nM
fold improvement of affinity toward IL5 against E7 [7]: 20 fold
koff [8]: 0.000552 s⁻¹
kon [8]: 12400 M⁻¹ s⁻¹
Kd [9]: 4.9 nM
koff [9]: 0.00342 s⁻¹
kon [9]: 697000 M⁻¹ s⁻¹

B6: 1C.36 (Fab, V domains shown)
VH: B4 VH with A49G, D63E, D64E
VL: B2 VL with S93H
notes: same clone as m16 and m18, here in the phage format
IC50 [6]: 0.9 nM
IC50 [10]: 2.1 nM

B7: 1C.60 (Fab, V domains shown)
VH: B4 VH with T60V
VL: B2 VL with T92K, S93H
notes: same clone as m17 and m19, here in the phage format
IC50 [6]: 3.67 nM
IC50 [10]: 1.1 nM

B8: humanized antibody 19C11 (hu19C11) wild-type Fab displayed on M13 phage (Fab, V domains shown)
VH: B1 VH with L33S, A49V, V50W, V52N, S53T, I54E, R57E, T58P, Y59T
VL: B2 VL
notes: Phagemid pV0115: light chain with gD expression tag fused to its C-terminus; VH-CH1 followed by hinge piece KTHTC and M13 minor coat protein p3 (bivalent Fab display); Humanized in germline VH1 / kappa I backbone; also called hu19C11 wt; Fab-displaying phage
IC50 [1]: 1.1 nM
EC50 [11]: 1 nM
binding result [3]: no binding
binding result [5]: no binding

B9: 5A as human IgG1 (antibody, V domains shown)
VH: EVQLVQSGAEVKKPGASVKVSCKASGYTFTDYDIHWVRQAPGQGLEWIVWINTETGEPTYADDFKGRVTITRDTSTSTAYLELSSLRSEDTAVYYCAREILFYGMDYWGQGTLVTVSS
VL: B2 VL
binding result [12]: no binding (tested: 250 nM)
binding result [13]: no binding (tested: 250 nM)
binding result [14]: no binding (tested: 250 nM)
binding result [15]: no binding (tested: 250 nM)

B10: 5A, anti-IL5 specific variant of hu19C11, Fab displayed on phage (Fab, V domains shown)
VH: B9 VH
VL: B2 VL
notes: also called clone 5A
IC50 [2]: ~1000 nM
binding result [3]: no binding
binding result [16]: no binding

B11: humanized antibody 19C11 (hu19C11) as IgG (antibody, V domains shown)
VH: B9 VH with D33S, I34M, E99G, I100G, L101I
VL: B2 VL
notes: IgG; also called the antibody as IgG
binding result [12]: no binding (tested: 250 nM)
binding result [13]: no binding (tested: 250 nM)
binding result [14]: no binding (tested: 250 nM)
binding result [17]: no binding (tested: 250 nM)

B12: 1C36, affinity-matured variant of E7, as IgG (antibody, V domains shown)
VH: B4 VH with A49G, D63E, D64E
VL: B2 VL with S93H
binding result [18]: no binding (tested: 100 nM)
binding result [19]: no binding (tested: 100 nM)

B13: 1C60, affinity-matured variant of E7, as IgG (antibody, V domains shown)
VH: B4 VH with T60V
VL: B2 VL with T92K, S93H
binding result [18]: no binding (tested: 100 nM)
binding result [19]: no binding (tested: 100 nM)

B14: F2 as human IgG1 (antibody, V domains shown)
VH: B2 VH
VL: B2 VL
binding result [12]: no binding (tested: 250 nM)
binding result [14]: no binding (tested: 250 nM)
binding result [17]: no binding (tested: 250 nM)

B15: E7 purified as Fab (Fab, V domains shown)
VH: B4 VH
VL: B2 VL
notes: also called IL4/IL5 dual specific clone E7
Kd [20]: 905 nM
